This note sets out measurements from the supplement of paper PMC10567573.

B1: RSPH3 (parent)
chain: VDVQTELYLEEIADRIIEVDMECQ
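Note: lentivirally expressed fusions sorted by FACS into six bins by GFP to DsRed ratio, PSI derived from sequencing read proportions per bin multiplied by bin number.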

Variants of B1 are the subject of this data set. Nature of the data set: protein stability index of a GFP-peptide fusion (GPS, HEK-293T) (PSI 1-6); higher = more stable. To be noted: c terminus: a fixed tail appended.
On to VDVQTELYLEECADRIIEVDMECQ [I12C], for which the protein stability index stood at 3.22.
Regarding VDVQTELYLEEGADRIIEVDMECQ [I12G], the protein stability index came out at 4.63.
The same measure for VDVQTELYLEEVADRIIEVDMECQ [I12V]: 2.91; for VDVQTELYLEEKADRIIEVDMECQ [I12K]: 4.77.
The same measure for VDVQTELYLEEAADRIIEVDMECQ [I12A]: 4.36.
For the variant VDVQTELYLEELADRIIEVDMECQ [I12L], the protein stability index came to 1.72.
In the case of VDVQTELYLEEFADRIIEVDMECQ [I12F] it was 1.61.
In the case of VDVQTELYLEERADRIIEVDMECQ [I12R] it was 4.25; in that of VDVQTELYLEEMADRIIEVDMECQ [I12M], 3.11; in that of VDVQTELYLEEDADRIIEVDMECQ [I12D], 4.39.
In the case of VDVQTELYLEEEADRIIEVDMECQ [I12E] it was 4.84; in that of VDVQTELYLEENADRIIEVDMECQ [I12N], 4.46.
In the case of VDVQTELYLEEQADRIIEVDMECQ [I12Q], the protein stability index worked out at 4.37.
Regarding VDVQTELYLEESADRIIEVDMECQ [I12S], the protein stability index is 4.98.
As for VDVQTELYWEEIADRIIEVDMECQ [L9W], the protein stability index amounted to 1.97.
On to VDVQTELYHEEIADRIIEVDMECQ [L9H], for which the protein stability index turned out to be 4.71.
VDVQTELYGEEIADRIIEVDMECQ [L9G]: the protein stability index came out at 4.44.
On to VDVQTELYFEEIADRIIEVDMECQ [L9F], for which the protein stability index was found to be 2.21.
In the case of VDVQTELYQEEIADRIIEVDMECQ [L9Q] it was 5.62.
As for VDVQTELYVEEIADRIIEVDMECQ [L9V], the protein stability index turned out to be 2.91.
Consider VDVQTELYTEEIADRIIEVDMECQ [L9T], for which the protein stability index came to 4.38.
As for VDVQTELYCEEIADRIIEVDMECQ [L9C], the protein stability index was 3.4.
The same measure for VDVQTELYEEEIADRIIEVDMECQ [L9E]: 5.12; for VDVQTELYMEEIADRIIEVDMECQ [L9M]: 3.33.
In the case of VDVQTELYNEEIADRIIEVDMECQ [L9N] it was 5.14; in that of VDVQTELYKEEIADRIIEVDMECQ [L9K], 4.65.
The same measure for VDVQTELYPEEIADRIIEVDMECQ [L9P]: 4.5; for VDVQTELYIEEIADRIIEVDMECQ [L9I]: 2.33.
VDVQTELYSEEIADRIIEVDMECQ [L9S]: the protein stability index was 4.92.
For the variant VDVQTELYYEEIADRIIEVDMECQ [L9Y], the protein stability index came to 2.79.
In the case of VDVQTELYDEEIADRIIEVDMECQ [L9D] it was 5.51; in that of VDVQTELYREEIADRIIEVDMECQ [L9R], 4.19.
The same measure for VDVQTELYAEEIADRIIEVDMECQ [L9A]: 4.01; for VDVQTELPLEEIADRIIEVDMECQ [Y8P]: 3.77; for VDVQTELWLEEIADRIIEVDMECQ [Y8W]: 2.51.
As to VDVQTELDLEEIADRIIEVDMECQ [Y8D], the protein stability index is 4.25.
The same measure for VDVQTELTLEEIADRIIEVDMECQ [Y8T]: 3.5.
As to VDVQTELRLEEIADRIIEVDMECQ [Y8R], the protein stability index is 3.11.
As for VDVQTELSLEEIADRIIEVDMECQ [Y8S], the protein stability index was 3.65.
In the case of VDVQTELMLEEIADRIIEVDMECQ [Y8M] it was 2.34; in that of VDVQTELNLEEIADRIIEVDMECQ [Y8N], 4.
VDVQTELQLEEIADRIIEVDMECQ [Y8Q]: the protein stability index is 4.25.
For the variant VDVQTELELEEIADRIIEVDMECQ [Y8E], the protein stability index came out at 4.48.
The same measure for VDVQTELGLEEIADRIIEVDMECQ [Y8G]: 4.65; for VDVQTELVLEEIADRIIEVDMECQ [Y8V]: 2.85.
On to VDVQTELFLEEIADRIIEVDMECQ [Y8F], for which the protein stability index turned out to be 1.92.
Turning to VDVQTELCLEEIADRIIEVDMECQ [Y8C], the protein stability index turned out to be 3.04.
The same measure for VDVQTELILEEIADRIIEVDMECQ [Y8I]: 1.71; for VDVQTELHLEEIADRIIEVDMECQ [Y8H]: 3.85.
In the case of VDVQTELYLEEITDRIIEVDMECQ [A13T] it was 2.62; in that of VDVQTELYLEEIQDRIIEVDMECQ [A13Q], 3.05.
In the case of VDVQTELYLEEIDDRIIEVDMECQ [A13D] it was 3.9; in that of VDVQTELYLEEICDRIIEVDMECQ [A13C], 2.31; in that of VDVQTELYLEEIWDRIIEVDMECQ [A13W], 1.65.
In the case of VDVQTELYLEEIEDRIIEVDMECQ [A13E], the protein stability index was 2.87.
The same measure for VDVQTELYLEEINDRIIEVDMECQ [A13N]: 3.2; for VDVQTELYLEEIFDRIIEVDMECQ [A13F]: 2.41; for VDVQTELYLEEIIDRIIEVDMECQ [A13I]: 2.22.
The same measure for VDVQTELYLEEIHDRIIEVDMECQ [A13H]: 2.5; for VDVQTELYLEEIRDRIIEVDMECQ [A13R]: 2.27; for VDVQTELYLEEIYDRIIEVDMECQ [A13Y]: 1.53.
The same measure for VDVQTELYLEEIPDRIIEVDMECQ [A13P]: 3.53.
VDVQTELYLEEIKDRIIEVDMECQ [A13K]: the protein stability index is 3.05.
In the case of VDVQTELYLEEISDRIIEVDMECQ [A13S] it was 2.57.
In the case of VDVQTELYLEEIGDRIIEVDMECQ [A13G] it was 2.95; in that of VDVQTELYLEEIVDRIIEVDMECQ [A13V], 2.17.
For the variant VDVQTELYLEEIMDRIIEVDMECQ [A13M], the protein stability index was 1.58.
The same measure for VDVQTELYLEEIADMIIEVDMECQ [R15M]: 2.24; for VDVQTELYLEEIADTIIEVDMECQ [R15T]: 2.56.
VDVQTELYLEEIADYIIEVDMECQ [R15Y]: the protein stability index worked out at 2.79.
In the case of VDVQTELYLEEIADAIIEVDMECQ [R15A] it was 2.55; in that of VDVQTELYLEEIADCIIEVDMECQ [R15C], 1.54; in that of VDVQTELYLEEIADWIIEVDMECQ [R15W], 3.01.
The same measure for VDVQTELYLEEIADGIIEVDMECQ [R15G]: 3.14; for VDVQTELYLEEIADDIIEVDMECQ [R15D]: 3.17.
As for VDVQTELYLEEIADFIIEVDMECQ [R15F], the protein stability index worked out at 2.31.
With VDVQTELYLEEIADPIIEVDMECQ [R15P], the protein stability index is 3.73.
The same measure for VDVQTELYLEEIADKIIEVDMECQ [R15K]: 3.1; for VDVQTELYLEEIADHIIEVDMECQ [R15H]: 2.77; for VDVQTELYLEEIADQIIEVDMECQ [R15Q]: 3.58.
The same measure for VDVQTELYLEEIADEIIEVDMECQ [R15E]: 3.55; for VDVQTELYLEEIADVIIEVDMECQ [R15V]: 2.65.
In the case of VDVQTELYLEEIADSIIEVDMECQ [R15S] it was 3.16; in that of VDVQTELYLEEIADNIIEVDMECQ [R15N], 3.66; in that of VDVQTELYLEEIAARIIEVDMECQ [D14A], 1.94.
For the variant VDVQTELYLEEIAHRIIEVDMECQ [D14H], the protein stability index turned out to be 1.55.
In the case of VDVQTELYLEEIATRIIEVDMECQ [D14T] it was 1.93.
With VDVQTELYLEEIANRIIEVDMECQ [D14N], the protein stability index is 2.11.
VDVQTELYLEEIAWRIIEVDMECQ [D14W]: the protein stability index turned out to be 3.47.
The same measure for VDVQTELYLEEIASRIIEVDMECQ [D14S]: 2.08; for VDVQTELYLEEIAPRIIEVDMECQ [D14P]: 2.45; for VDVQTELYLEEIAERIIEVDMECQ [D14E]: 1.92.
In the case of VDVQTELYLEEIAQRIIEVDMECQ [D14Q] it was 2.32.
In the case of VDVQTELYLEEIAKRIIEVDMECQ [D14K] it was 1.93.
